Assay [1] has as its target CD28Ig (human) (UniProt P10747). Description: ELISA on CD28Ig-coated plates, detected with anti-human kappa conjugate. For orientation: ELISA stands for enzyme-linked immunosorbent assay.
The target in assay [2] is ニワトリリゾチーム (chicken lysozyme) (chicken) (UniProt P00698). Description: fluorescence quench titration; 200 nM Fab titrated with lysozyme in solution.
Assay [3] has the same target. The assay is described as follows: legend of Figure 7 (antigen binding graph, fluorescence quench titration).
The target of assay [4] is ヒトグルタミン酸デカルボキシラーゼ65kDaアイソフォーム (human glutamic acid decarboxylase, GAD65) (human) (UniProt Q05329). Description: immunoprecipitation of 35S-labelled GAD65 with Protein G-Sepharose; midpoint read by eye.
Chain of UniProt Q05329 (Q05329 whole entry): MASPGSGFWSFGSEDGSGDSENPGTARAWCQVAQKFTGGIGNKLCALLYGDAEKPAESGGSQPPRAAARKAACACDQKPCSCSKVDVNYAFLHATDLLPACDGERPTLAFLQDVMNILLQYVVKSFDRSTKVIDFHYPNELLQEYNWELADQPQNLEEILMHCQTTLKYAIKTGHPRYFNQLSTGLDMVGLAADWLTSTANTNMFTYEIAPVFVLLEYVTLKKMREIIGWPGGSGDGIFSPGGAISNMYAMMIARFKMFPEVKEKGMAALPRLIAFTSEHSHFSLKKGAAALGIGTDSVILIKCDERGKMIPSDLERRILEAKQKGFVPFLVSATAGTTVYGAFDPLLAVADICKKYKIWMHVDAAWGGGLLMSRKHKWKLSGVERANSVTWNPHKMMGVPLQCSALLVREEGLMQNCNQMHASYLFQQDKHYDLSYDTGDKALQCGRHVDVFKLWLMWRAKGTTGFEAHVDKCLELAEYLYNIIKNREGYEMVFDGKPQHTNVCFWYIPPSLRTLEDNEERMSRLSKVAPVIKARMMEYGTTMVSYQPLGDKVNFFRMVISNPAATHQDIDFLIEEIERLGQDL
Assay [5] has as its target CD28Ig (human) (UniProt P10747). Description: legend of Figure 11 (antigen binding graph, ELISA).

Chain of UniProt P00698 (P00698 19-147 limits assumed): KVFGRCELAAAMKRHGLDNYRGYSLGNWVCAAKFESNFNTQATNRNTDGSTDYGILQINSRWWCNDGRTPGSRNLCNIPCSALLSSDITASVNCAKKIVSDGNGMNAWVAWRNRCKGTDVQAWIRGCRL

By EC50 is commonly meant the concentration at which the effect is half-maximal. Read a low EC50 as a more potent agent. Consider “マウス9.3 Fab (Fab of mouse 9.3 variable domains and human constant domains)”, for which, in assay [1], the EC50 worked out at 20 nM.
A word on the Kd: it is the concentration at which binding is half-saturated. The low end stands for a tighter complex, the high end for a looser complex. The molecule “ヒト化D1.3 Fab (humanized D1.3 Fab, anti-chicken lysozyme)” showed a Kd in assay [2] of 23 nM. In addition, the Ka in assay [3] was > 1e+08 M⁻¹.

B1: マウスNGAD65 Fabフラグメント (mouse NGAD65 variable domains and constant domains) (Fab, from another filing, V domains shown)
VH: QVQLQQPGAELVKPGASVKMSCKASGYRFSSYNMHWVKQTPGQGLEWIGAIYPRSGDTSYNQKFKGKATLTADKSSSTAYMQLGSLTSEDSAVYYCVRSYDYDAPFAFWGQGTLVTVSA
VL: VLTQTPLSLPVSLGDQASISCRSSQSLEHNNGNTYLNWYLQKPGQSPQLLIYRVSNRFSGGLDRFSGSGSGTDFTLKISRVEAEDLGVYFCLQVTHVPFTFGSGTKLEIKR
In assay [4], B1 displayed an EC50 of 0.00036 nM.

B2: ヒト化抗ヒトCD28(Hu9.3)Fabフラグメント (Fab, from another filing, V domains shown)
VH: EVQLVQSGGGLVQPGGSLRLSCAGSGFTFSDYGVHWVRQAPGKGLEWVSAIWAGGGTNYASSVMGRFTISRDNAKNSLYLQMNSLRAEDMAVYYCARDKGYSYYYSMDYWGQGTLVTVSS
VL: DIVMTQSPDSLAVSLGERATINCRASESVEYYVTSLMAWYQQKPGQPPKLLIYAASNVESGVPDRFSGSGSGTNFSLTISSLQAEDVAVYYCQQSRKVPYTFGQGTKLEIKR
For B2, the EC50 in assay [1] was 630 nM. Further, in assay [5], the Ka was > 1e+06 M⁻¹.
